{"source": "the Human Domainome abundance scans (Beltran et al. 2025)", "note": "± gives the uncertainty stated by the source.", "data": [{"assay": "abundance fitness (aPCA) (normalised: wild type 0, dead -1); higher = more abundant; growth selection in yeast, the domain comes from the species named", "settings": "Homo sapiens", "values": [{"substance": "SAFB-like transcription modulator I41R, Q9NWH9", "abundance fitness": "-0.202 ± 0.066"}, {"substance": "SAFB-like transcription modulator I41S, Q9NWH9", "abundance fitness": "-0.01 ± 0.042"}, {"substance": "SAFB-like transcription modulator I41T, Q9NWH9", "abundance fitness": "-0.337 ± 0.079"}, {"substance": "SAFB-like transcription modulator I41V, Q9NWH9", "abundance fitness": "-0.067 ± 0.063"}, {"substance": "SAFB-like transcription modulator I41W, Q9NWH9", "abundance fitness": "-0.195 ± 0.092"}, {"substance": "SAFB-like transcription modulator I41Y, Q9NWH9", "abundance fitness": "-0.172 ± 0.11"}, {"substance": "SAFB-like transcription modulator I49A, Q9NWH9", "abundance fitness": "0 ± 0.063"}, {"substance": "SAFB-like transcription modulator I49C, Q9NWH9", "abundance fitness": "-0.138 ± 0.056"}, {"substance": "SAFB-like transcription modulator I49D, Q9NWH9", "abundance fitness": "-0.154 ± 0.11"}, {"substance": "SAFB-like transcription modulator I49E, Q9NWH9", "abundance fitness": "-0.056 ± 0.071"}, {"substance": "SAFB-like transcription modulator I49G, Q9NWH9", "abundance fitness": "-0.406 ± 0.049"}, {"substance": "SAFB-like transcription modulator I49H, Q9NWH9", "abundance fitness": "-0.29 ± 0.1"}, {"substance": "SAFB-like transcription modulator I49K, Q9NWH9", "abundance fitness": "-0.401 ± 0.078"}, {"substance": "SAFB-like transcription modulator I49L, Q9NWH9", "abundance fitness": "-0.075 ± 0.045"}, {"substance": "SAFB-like transcription modulator I49M, Q9NWH9", "abundance fitness": "0.03 ± 0.057"}, {"substance": "SAFB-like transcription modulator I49N, Q9NWH9", "abundance fitness": "-0.518 ± 0.073"}, {"substance": "SAFB-like transcription modulator I49P, Q9NWH9", "abundance fitness": "-0.739 ± 0.067"}, {"substance": "SAFB-like transcription modulator I49Q, Q9NWH9", "abundance fitness": "-0.068 ± 0.05"}, {"substance": "SAFB-like transcription modulator I49R, Q9NWH9", "abundance fitness": "-0.148 ± 0.054"}, {"substance": "SAFB-like transcription modulator I49S, Q9NWH9", "abundance fitness": "-0.168 ± 0.05"}, {"substance": "SAFB-like transcription modulator I49T, Q9NWH9", "abundance fitness": "-0.223 ± 0.072"}, {"substance": "SAFB-like transcription modulator I49V, Q9NWH9", "abundance fitness": "-0.079 ± 0.048"}, {"substance": "SAFB-like transcription modulator I49W, Q9NWH9", "abundance fitness": "-0.449 ± 0.041"}, {"substance": "SAFB-like transcription modulator I49Y, Q9NWH9", "abundance fitness": "-0.076 ± 0.089"}, {"substance": "SAFB-like transcription modulator I56A, Q9NWH9", "abundance fitness": "-0.829 ± 0.1"}, {"substance": "SAFB-like transcription modulator I56C, Q9NWH9", "abundance fitness": "-0.18 ± 0.083"}, {"substance": "SAFB-like transcription modulator I56D, Q9NWH9", "abundance fitness": "-0.286 ± 0.3"}, {"substance": "SAFB-like transcription modulator I56E, Q9NWH9", "abundance fitness": "-0.597 ± 0.089"}, {"substance": "SAFB-like transcription modulator I56F, Q9NWH9", "abundance fitness": "-0.898 ± 0.21"}, {"substance": "SAFB-like transcription modulator I56G, Q9NWH9", "abundance fitness": "-0.916 ± 0.072"}, {"substance": "SAFB-like transcription modulator I56H, Q9NWH9", "abundance fitness": "-0.797 ± 0.19"}, {"substance": "SAFB-like transcription modulator I56L, Q9NWH9", "abundance fitness": "0.002 ± 0.068"}, {"substance": "SAFB-like transcription modulator I56M, Q9NWH9", "abundance fitness": "-0.217 ± 0.05"}, {"substance": "SAFB-like transcription modulator I56N, Q9NWH9", "abundance fitness": "-0.951 ± 0.25"}, {"substance": "SAFB-like transcription modulator I56P, Q9NWH9", "abundance fitness": "-0.457 ± 0.05"}, {"substance": "SAFB-like transcription modulator I56R, Q9NWH9", "abundance fitness": "-0.485 ± 0.07"}, {"substance": "SAFB-like transcription modulator I56S, Q9NWH9", "abundance fitness": "-0.678 ± 0.082"}, {"substance": "SAFB-like transcription modulator I56W, Q9NWH9", "abundance fitness": "-0.561 ± 0.069"}, {"substance": "SAFB-like transcription modulator I56Y, Q9NWH9", "abundance fitness": "-0.419 ± 0.16"}, {"substance": "SAFB-like transcription modulator I66A, Q9NWH9", "abundance fitness": "-0.552 ± 0.15"}, {"substance": "SAFB-like transcription modulator I66C, Q9NWH9", "abundance fitness": "0.196 ± 0.11"}, {"substance": "SAFB-like transcription modulator I66E, Q9NWH9", "abundance fitness": "-0.272 ± 0.061"}, {"substance": "SAFB-like transcription modulator I66F, Q9NWH9", "abundance fitness": "-0.396 ± 0.15"}, {"substance": "SAFB-like transcription modulator I66G, Q9NWH9", "abundance fitness": "-0.517 ± 0.085"}, {"substance": "SAFB-like transcription modulator I66H, Q9NWH9", "abundance fitness": "-0.226 ± 0.12"}, {"substance": "SAFB-like transcription modulator I66L, Q9NWH9", "abundance fitness": "-0.268 ± 0.094"}, {"substance": "SAFB-like transcription modulator I66M, Q9NWH9", "abundance fitness": "-0.316 ± 0.14"}, {"substance": "SAFB-like transcription modulator I66N, Q9NWH9", "abundance fitness": "-0.432 ± 0.18"}, {"substance": "SAFB-like transcription modulator I66P, Q9NWH9", "abundance fitness": "-0.274 ± 0.1"}, {"substance": "SAFB-like transcription modulator I66Q, Q9NWH9", "abundance fitness": "-0.004 ± 0.11"}, {"substance": "SAFB-like transcription modulator I66R, Q9NWH9", "abundance fitness": "-0.443 ± 0.061"}, {"substance": "SAFB-like transcription modulator I66S, Q9NWH9", "abundance fitness": "-0.259 ± 0.083"}, {"substance": "SAFB-like transcription modulator I66T, Q9NWH9", "abundance fitness": "-0.063 ± 0.12"}, {"substance": "SAFB-like transcription modulator I66V, Q9NWH9", "abundance fitness": "-0.036 ± 0.084"}, {"substance": "SAFB-like transcription modulator I66W, Q9NWH9", "abundance fitness": "-0.451 ± 0.18"}, {"substance": "SAFB-like transcription modulator I66Y, Q9NWH9", "abundance fitness": "0.007 ± 0.16"}, {"substance": "SAFB-like transcription modulator K20A, Q9NWH9", "abundance fitness": "-0.284 ± 0.039"}, {"substance": "SAFB-like transcription modulator K20C, Q9NWH9", "abundance fitness": "-0.115 ± 0.043"}, {"substance": "SAFB-like transcription modulator K20D, Q9NWH9", "abundance fitness": "-0.413 ± 0.11"}, {"substance": "SAFB-like transcription modulator K20E, Q9NWH9", "abundance fitness": "-0.354 ± 0.13"}, {"substance": "SAFB-like transcription modulator K20F, Q9NWH9", "abundance fitness": "-0.366 ± 0.16"}, {"substance": "SAFB-like transcription modulator K20G, Q9NWH9", "abundance fitness": "-0.638 ± 0.082"}, {"substance": "SAFB-like transcription modulator K20H, Q9NWH9", "abundance fitness": "0.005 ± 0.12"}, {"substance": "SAFB-like transcription modulator K20I, Q9NWH9", "abundance fitness": "0.049 ± 0.11"}, {"substance": "SAFB-like transcription modulator K20L, Q9NWH9", "abundance fitness": "-0.21 ± 0.078"}, {"substance": "SAFB-like transcription modulator K20M, Q9NWH9", "abundance fitness": "-0.035 ± 0.075"}, {"substance": "SAFB-like transcription modulator K20N, Q9NWH9", "abundance fitness": "-0.333 ± 0.17"}, {"substance": "SAFB-like transcription modulator K20Q, Q9NWH9", "abundance fitness": "-0.193 ± 0.091"}, {"substance": "SAFB-like transcription modulator K20S, Q9NWH9", "abundance fitness": "-0.244 ± 0.036"}, {"substance": "SAFB-like transcription modulator K20T, Q9NWH9", "abundance fitness": "-0.212 ± 0.053"}, {"substance": "SAFB-like transcription modulator K20V, Q9NWH9", "abundance fitness": "-0.252 ± 0.072"}, {"substance": "SAFB-like transcription modulator K20W, Q9NWH9", "abundance fitness": "-0.284 ± 0.095"}, {"substance": "SAFB-like transcription modulator K20Y, Q9NWH9", "abundance fitness": "-0.454 ± 0.3"}, {"substance": "SAFB-like transcription modulator K21A, Q9NWH9", "abundance fitness": "-0.182 ± 0.033"}, {"substance": "SAFB-like transcription modulator K21C, Q9NWH9", "abundance fitness": "-0.203 ± 0.058"}, {"substance": "SAFB-like transcription modulator K21E, Q9NWH9", "abundance fitness": "-0.195 ± 0.064"}, {"substance": "SAFB-like transcription modulator K21F, Q9NWH9", "abundance fitness": "-0.349 ± 0.077"}, {"substance": "SAFB-like transcription modulator K21G, Q9NWH9", "abundance fitness": "-0.265 ± 0.046"}, {"substance": "SAFB-like transcription modulator K21H, Q9NWH9", "abundance fitness": "-0.33 ± 0.091"}, {"substance": "SAFB-like transcription modulator K21L, Q9NWH9", "abundance fitness": "-0.324 ± 0.041"}, {"substance": "SAFB-like transcription modulator K21N, Q9NWH9", "abundance fitness": "-0.491 ± 0.094"}, {"substance": "SAFB-like transcription modulator K21P, Q9NWH9", "abundance fitness": "-0.312 ± 0.057"}, {"substance": "SAFB-like transcription modulator K21Q, Q9NWH9", "abundance fitness": "-0.336 ± 0.052"}, {"substance": "SAFB-like transcription modulator K21S, Q9NWH9", "abundance fitness": "-0.198 ± 0.056"}, {"substance": "SAFB-like transcription modulator K21T, Q9NWH9", "abundance fitness": "-0.355 ± 0.064"}, {"substance": "SAFB-like transcription modulator K21V, Q9NWH9", "abundance fitness": "-0.375 ± 0.04"}, {"substance": "SAFB-like transcription modulator K21W, Q9NWH9", "abundance fitness": "-0.982 ± 0.12"}, {"substance": "SAFB-like transcription modulator K21Y, Q9NWH9", "abundance fitness": "-0.667 ± 0.076"}, {"substance": "SAFB-like transcription modulator K31A, Q9NWH9", "abundance fitness": "-0.352 ± 0.049"}, {"substance": "SAFB-like transcription modulator K31C, Q9NWH9", "abundance fitness": "-0.223 ± 0.06"}, {"substance": "SAFB-like transcription modulator K31E, Q9NWH9", "abundance fitness": "-0.219 ± 0.062"}, {"substance": "SAFB-like transcription modulator K31F, Q9NWH9", "abundance fitness": "-0.288 ± 0.037"}, {"substance": "SAFB-like transcription modulator K31G, Q9NWH9", "abundance fitness": "-0.859 ± 0.038"}, {"substance": "SAFB-like transcription modulator K31H, Q9NWH9", "abundance fitness": "-0.102 ± 0.083"}, {"substance": "SAFB-like transcription modulator K31I, Q9NWH9", "abundance fitness": "0.131 ± 0.064"}, {"substance": "SAFB-like transcription modulator K31L, Q9NWH9", "abundance fitness": "-0.155 ± 0.042"}, {"substance": "SAFB-like transcription modulator K31M, Q9NWH9", "abundance fitness": "-0.241 ± 0.068"}, {"substance": "SAFB-like transcription modulator K31N, Q9NWH9", "abundance fitness": "-0.629 ± 0.075"}, {"substance": "SAFB-like transcription modulator K31P, Q9NWH9", "abundance fitness": "-1.16 ± 0.075"}, {"substance": "SAFB-like transcription modulator K31Q, Q9NWH9", "abundance fitness": "-0.069 ± 0.075"}, {"substance": "SAFB-like transcription modulator K31R, Q9NWH9", "abundance fitness": "-0.184 ± 0.047"}, {"substance": "SAFB-like transcription modulator K31S, Q9NWH9", "abundance fitness": "-0.613 ± 0.061"}, {"substance": "SAFB-like transcription modulator K31T, Q9NWH9", "abundance fitness": "-0.143 ± 0.043"}]}]}
